Reference: article PMC9309721

Tests used:
TFIIB = TFIIB (UniProt Q00403); experiment: FLAG co-immunoprecipitation, TFIIB immunoblot; conditions: reference: FLAG-WT-HSF1
[1] = molecular target: T1, FLAG-tagged WT-HSF1 (human), Q00613; experiment: cross-linking + SEC; HEK-293 cells co-expressing AKT1 and WT- or T142A-HSF1, fixed with EGS; RIPA lysate on Superdex 200 Increase 10/300 GL in 50 mM Tris pH 8.0, 150 mM NaCl, 1% NP-40, 4 °C; fractions immunoblotted for HSF1; conditions: remark: other sources report otherwise
T1 chain: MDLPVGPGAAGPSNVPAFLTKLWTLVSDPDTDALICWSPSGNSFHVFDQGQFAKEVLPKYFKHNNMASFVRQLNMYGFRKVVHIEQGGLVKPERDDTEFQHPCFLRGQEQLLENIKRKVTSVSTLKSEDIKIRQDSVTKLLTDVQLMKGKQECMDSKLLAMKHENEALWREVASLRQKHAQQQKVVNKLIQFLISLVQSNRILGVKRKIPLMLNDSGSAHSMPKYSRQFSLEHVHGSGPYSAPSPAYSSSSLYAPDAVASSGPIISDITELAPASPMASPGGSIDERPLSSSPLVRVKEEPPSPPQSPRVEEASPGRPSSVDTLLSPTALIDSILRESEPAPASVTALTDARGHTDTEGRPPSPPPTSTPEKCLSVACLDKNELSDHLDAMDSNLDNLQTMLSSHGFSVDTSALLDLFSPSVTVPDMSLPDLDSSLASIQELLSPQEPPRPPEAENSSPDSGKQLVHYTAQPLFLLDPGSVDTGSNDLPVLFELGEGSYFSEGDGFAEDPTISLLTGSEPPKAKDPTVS

[2] = molecular target: T1, FLAG-tagged WT-HSF1 (human), Q00613; experiment: cross-linking; HEK-293 cells transfected for 48 h with WT- or T142A-HSF1 with or without AKT1 or CK2; cells fixed with 1 mM EGS for 30 min at RT, quenched with 10 mM Tris pH 7.5, RIPA lysate, SDS/PAGE, immunoblot for HSF1 trimers; conditions: remark: other sources report otherwise

HSF1 (from UniProt Q00613) FLAG-S326A-HSF1
binding against the reference (TFIIB; sites S326): weaker

HSF1 (from UniProt Q00613) FLAG-T527A-HSF1
binding against the reference (TFIIB; sites T527): lost

B1: FLAG-tagged WT-HSF1, Q00613 1-529 (natural protein)
chain: MDLPVGPGAAGPSNVPAFLTKLWTLVSDPDTDALICWSPSGNSFHVFDQGQFAKEVLPKYFKHNNMASFVRQLNMYGFRKVVHIEQGGLVKPERDDTEFQHPCFLRGQEQLLENIKRKVTSVSTLKSEDIKIRQDSVTKLLTDVQLMKGKQECMDSKLLAMKHENEALWREVASLRQKHAQQQKVVNKLIQFLISLVQSNRILGVKRKIPLMLNDSGSAHSMPKYSRQFSLEHVHGSGPYSAPSPAYSSSSLYAPDAVASSGPIISDITELAPASPMASPGGSIDERPLSSSPLVRVKEEPPSPPQSPRVEEASPGRPSSVDTLLSPTALIDSILRESEPAPASVTALTDARGHTDTEGRPPSPPPTSTPEKCLSVACLDKNELSDHLDAMDSNLDNLQTMLSSHGFSVDTSALLDLFSPSVTVPDMSLPDLDSSLASIQELLSPQEPPRPPEAENSSPDSGKQLVHYTAQPLFLLDPGSVDTGSNDLPVLFELGEGSYFSEGDGFAEDPTISLLTGSEPPKAKDPTVS
stoichiometry N [1]: 3 | stoichiometry N [2]: 3
